Here are results for 70 substances from US10253076B2, “Peptides and combination of peptides for use in immunotherapy against ovarian cancer and other cancers” (immatics biotechnologies GmbH, priority 2015, dated 2019).

The target in this experiment is HLA-A*02:01 (Homo sapiens, UniProt P04439, D140Y/D185E/D98H/E176V/E277Q/G131W/G231S/I119V/I121R/I166T/I218V/L300P/L318F/N151K/N90K/P208A/P217A/Q86G/Q94H/R138H/R169H/T345S). The experiment in a line: MHC binding assay (UV-ligand exchange, beta2m ELISA, peptide exchange yield). The following applies: binding of HLA-class I restricted peptides to HLA-A*02:01, ranged by peptide exchange yield (UV-ligand exchange, β2m ELISA). Summed up: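 Readout is a β2m ELISA: stabilized complexes captured on streptavidin, detected with HRP-conjugated anti-β2m and TMB at 450 nm, reporting peptide exchange yield. Complexes come from UV-light cleavage of a conditional ligand in HLA-A*02:01 and replacement by the candidate peptide, samples diluted 100-fold.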
(In general: In an ELISA, binding on a coated surface is turned into a signal by an enzyme label.)

Regarding “301 (FLVEDLVDSL; listed as Homo sapiens) [compound 301]”, the Peptide exchange entry is “″+++″ (≥50% = +++)”.
Turning to “302 (ALLQEGEVYSA; listed as Homo sapiens) [compound 302]”, the Peptide exchange result is recorded as “″+++″ (≥50% = +++)”.
“303 (AILPQLFMV; listed as Homo sapiens) [compound 303]”: the Peptide exchange entry is given as “″++++″ (≥75% = ++++)”.
Regarding “304 (MTLGQIYYL; listed as Homo sapiens) [compound 304]”, the Peptide exchange result is listed as “″+++″ (≥50% = +++)”.
Regarding “305 (SIANFSEFYV; listed as Homo sapiens) [compound 305]”, the Peptide exchange entry is on record as “″++++″ (≥75% = ++++)”.
With “306 (ALVNVQIPL; listed as Homo sapiens) [compound 306]”, the Peptide exchange entry was “″+++″ (≥50% = +++)”.
On to “307 (ALPVSLPQI; listed as Homo sapiens) [compound 307]”, for which the Peptide exchange result is listed as “″+++″ (≥50% = +++)”.
For the substance “308 (SQYSGQLHEV; listed as Homo sapiens) [compound 308]”, the Peptide exchange result is on record as “″+++″ (≥50% = +++)”.
For “309 (GLFDGVPTTA; listed as Homo sapiens) [compound 309]”, the Peptide exchange result is reported as “″+++″ (≥50% = +++)”.
Under “310 (FLVDTPLARA; listed as Homo sapiens) [compound 310]” stands “″++++″ (≥75% = ++++)”; under “311 (RLYTGMHTV; listed as Homo sapiens) [compound 311]”, “″+++″ (≥50% = +++)”.
In the case of “312 (IISDLTIAL; listed as Homo sapiens) [compound 312]”, the Peptide exchange entry is reported as “″+++″ (≥50% = +++)”.
Regarding “313 (VLFDDELLMV; listed as Homo sapiens) [compound 313]”, the Peptide exchange result was “″+++″ (≥50% = +++)”.
As to “314 (ALIAEGIALV; listed as Homo sapiens) [compound 314]”, the Peptide exchange entry is given as “″+++″ (≥50% = +++)”.
Take “315 (YLQDVVEQA; listed as Homo sapiens) [compound 315]”: the Peptide exchange result is “″+++″ (≥50% = +++)”.
On to “316 (ILLERLWYV; listed as Homo sapiens) [compound 316]”, for which the Peptide exchange result is given as “″+++″ (≥50% = +++)”.
As for “317 (SLAALVVHV; listed as Homo sapiens) [compound 317]”, the entry is “″+++″ (≥50% = +++)”; as for “318 (GLINTGVLSV; listed as Homo sapiens) [compound 318]”, “″++″ (≥20% = ++)”; as for “320 (KMFEFVEPLL; listed as Homo sapiens) [compound 320]”, “″++++″ (≥75% = ++++)”.
Under “321 (GLFEDVTQPGILL; listed as Homo sapiens) [compound 321]” stands “″++++″ (≥75% = ++++)”; under “322 (TLMTSLPAL; listed as Homo sapiens) [compound 322]”, “″+++″ (≥50% = +++)”.
Consider “324 (FLYDEIEAEV; listed as Homo sapiens) [compound 324]”, for which the Peptide exchange result is “″+++″ (≥50% = +++)”.
Under “325 (FIMPATVADATAV; listed as Homo sapiens) [compound 325]” stands “″+++″ (≥50% = +++)”; under “326 (FLPEALDFV; listed as Homo sapiens) [compound 326]”, “″+++″ (≥50% = +++)”.
With “327 (GLAPFTEGISFV; listed as Homo sapiens) [compound 327]”, the Peptide exchange result was “″+++″ (≥50% = +++)”.
As for “328 (ALNDQVFEI; listed as Homo sapiens) [compound 328]”, the Peptide exchange entry is “″+++″ (≥50% = +++)”.
As for “329 (FLVTLNNVEV; listed as Homo sapiens) [compound 329]”, the Peptide exchange result is given as “″++++″ (≥75% = ++++)”.
As for “330 (QLALKVEGV; listed as Homo sapiens) [compound 330]”, the entry is “″+++″ (≥50% = +++)”.
On to “331 (KVDTVWVNV; listed as Homo sapiens) [compound 331]”, for which the Peptide exchange result was “″+++″ (≥50% = +++)”.
On to “332 (YLISELEAA; listed as Homo sapiens) [compound 332]”, for which the Peptide exchange result is recorded as “″+++″ (≥50% = +++)”.
“333 (FLPDANSSV; listed as Homo sapiens) [compound 333]”: the Peptide exchange result was “″++″ (≥20% = ++)”.
Under “334 (TLTKVLVAL; listed as Homo sapiens) [compound 334]” stands “″+++″ (≥50% = +++)”; under “335 (YSLSSVVTV; listed as Homo sapiens) [compound 335]”, “″+++″ (≥50% = +++)”; under “336 (ILLTAIVQV; listed as Homo sapiens) [compound 336]”, “″+++″ (≥50% = +++)”.
Under “337 (HLLSELEAAPYL; listed as Homo sapiens) [compound 337]” stands “″++++″ (≥75% = ++++)”.
In the case of “339 (GLWEIENNPTVKA; listed as Homo sapiens) [compound 339]”, the Peptide exchange entry is recorded as “″++++″ (≥75% = ++++)”.
As to “340 (ALLSMTFPL; listed as Homo sapiens) [compound 340]”, the Peptide exchange entry is “″++++″ (≥75% = ++++)”.
Turning to “341 (SQIALNEKLVNL; listed as Homo sapiens) [compound 341]”, the Peptide exchange entry is “″+++″ (≥50% = +++)”.
For the substance “342 (HIYDKVMTV; listed as Homo sapiens) [compound 342]”, the Peptide exchange entry is listed as “″+++″ (≥50% = +++)”.
With “343 (SLLEVNEESTV; listed as Homo sapiens) [compound 343]”, the Peptide exchange entry is reported as “″+++″ (≥50% = +++)”.
With “344 (YLQDQHLLLTV; listed as Homo sapiens) [compound 344]”, the Peptide exchange entry is recorded as “″+++″ (≥50% = +++)”.
Under “345 (VIWKALIHL; listed as Homo sapiens) [compound 345]” stands “″+++″ (≥50% = +++)”.
Turning to “346 (LLDSKVPSV; listed as Homo sapiens) [compound 346]”, the Peptide exchange entry is recorded as “″+++″ (≥50% = +++)”.
As for “347 (SLFKHDPAAWEA; listed as Homo sapiens) [compound 347]”, the Peptide exchange entry is recorded as “″++++″ (≥75% = ++++)”.
Turning to “348 (ILLDVKTRL; listed as Homo sapiens) [compound 348]”, the Peptide exchange result is “″++++″ (≥75% = ++++)”.
“349 (SLTEYLQNV; listed as Homo sapiens) [compound 349]”: the Peptide exchange entry is listed as “″++++″ (≥75% = ++++)”.
As for “350 (ALLDVTHSELTV; listed as Homo sapiens) [compound 350]”, the entry is “″+++″ (≥50% = +++)”.
For the substance “351 (SLIPNLRNV; listed as Homo sapiens) [compound 351]”, the Peptide exchange entry is reported as “″+++″ (≥50% = +++)”.
Consider “352 (SLLELLHIYV; listed as Homo sapiens) [compound 352]”, for which the Peptide exchange result is reported as “″+++″ (≥50% = +++)”.
As for “353 (YLFEMDSSL; listed as Homo sapiens) [compound 353]”, the Peptide exchange entry is given as “″++″ (≥20% = ++)”.
As for “354 (LILEGVDTV; listed as Homo sapiens) [compound 354]”, the Peptide exchange entry is “″++″ (≥20% = ++)”.
With “355 (SIQQSIERLLV; listed as Homo sapiens) [compound 355]”, the Peptide exchange entry is “″++″ (≥20% = ++)”.
On to “356 (KLLGKLPEL; listed as Homo sapiens) [compound 356]”, for which the Peptide exchange result is “″+++″ (≥50% = +++)”.
As to “357 (SMHDLVLQV; listed as Homo sapiens) [compound 357]”, the Peptide exchange result is listed as “″+++″ (≥50% = +++)”.
As to “358 (ALDEYTSEL; listed as Homo sapiens) [compound 358]”, the Peptide exchange result is “″++++″ (≥75% = ++++)”.
Under “359 (YLLPESVDL; listed as Homo sapiens) [compound 359]” stands “″+++″ (≥50% = +++)”.
Turning to “361 (ALYELEGTTV; listed as Homo sapiens) [compound 361]”, the Peptide exchange entry is “″+++″ (≥50% = +++)”.
Under “362 (TLYGLSVLL; listed as Homo sapiens) [compound 362]” stands “″+++″ (≥50% = +++)”; under “363 (KVLDVSDLESV; listed as Homo sapiens) [compound 363]”, “″++″ (≥20% = ++)”; under “364 (LLQNEQFEL; listed as Homo sapiens) [compound 364]”, “″+++″ (≥50% = +++)”.
As for “365 (YVIDQGETDVYV; listed as Homo sapiens) [compound 365]”, the Peptide exchange entry is on record as “″+++″ (≥50% = +++)”.
Under “366 (RLLDMGETDLML; listed as Homo sapiens) [compound 366]” stands “″+++″ (≥50% = +++)”; under “367 (SLQNHNHQL; listed as Homo sapiens) [compound 367]”, “″+++″ (≥50% = +++)”; under “369 (GLFPEHLIDV; listed as Homo sapiens) [compound 369]”, “″+++″ (≥50% = +++)”.
Turning to “370 (SLLQDLVSV; listed as Homo sapiens) [compound 370]”, the Peptide exchange entry is listed as “″+++″ (≥50% = +++)”.
As to “371 (FLQAHLHTA; listed as Homo sapiens) [compound 371]”, the Peptide exchange entry was “″++++″ (≥75% = ++++)”.
Consider “372 (TMLLNIPLV; listed as Homo sapiens) [compound 372]”, for which the Peptide exchange result was “″++″ (≥20% = ++)”.
Consider “373 (SLLEDKGLAEV; listed as Homo sapiens) [compound 373]”, for which the Peptide exchange result is listed as “″++″ (≥20% = ++)”.
Under “374 (FLLQQHLISA; listed as Homo sapiens) [compound 374]” stands “″++″ (≥20% = ++)”; under “375 (SLTETIEGV; listed as Homo sapiens) [compound 375]”, “″++″ (≥20% = ++)”.
